Data set [1] addresses T1, AtNDK1 (Arabidopsis nucleoside diphosphate kinase 1) (Arabidopsis thaliana, UniProt P39207).
T1 construct: gene NDK1; full open reading frame in pGEX6P-1 (BamHI/EcoRI, synthetic), GST tag cut with PreScission protease, E. coli T7 Express, size exclusion purified, hexamer
T1 sequence (P39207 1-149): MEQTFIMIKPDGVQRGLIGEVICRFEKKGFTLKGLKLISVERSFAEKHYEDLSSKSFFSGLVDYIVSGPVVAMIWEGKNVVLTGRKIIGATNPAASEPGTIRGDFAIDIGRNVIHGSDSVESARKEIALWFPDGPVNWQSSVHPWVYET
Briefly: NDK assay, ATP formation by ATP determination kit. It is filed as biochemical. Conditions: substrate inhibition by ADP (fit of Michaelis-Menten data with 0-100 μM ADP); 50 μM GTP; 2 mM MgCl2, pH 7.6, 25 °C.

For data set [2], the target named is T1, AtNDK1 (Arabidopsis nucleoside diphosphate kinase 1). Briefly: NDK assay, ATP formation by ATP determination kit. It is filed as biochemical.
Data set [3] deals with the molecule itself. In words: SEC; analytical SEC, Superose 6 increase 10/300 GL; 30 mM Tris pH 7.9, 200 mM NaCl, 1 mM DTT, 1 mM EDTA; sample ~1 mg/mL, 100 uL injected; size and oligomeric state approximated from retention volume and a standard curve; self-association (hexamer, dimer). (Size exclusion chromatography separates by hydrodynamic size, large species first.)
Data set [4] deals with the molecule itself. The data set is described as above. The source holds these as a separate data set.
Substrate in data set [5]: Nc1ncnc2c1ncn2[C@@H]1O[C@H](COP(=O)(O)OP(=O)(O)O)[C@@H](O)[C@H]1O
Briefly: NDK assay, ATP formation by ATP determination kit. Particulars: 50 μM GTP fixed, 0-100 μM ADP, substrate inhibition model, 2 mM MgCl2, pH 7.6, 25 °C. It counts as biochemical, Arabidopsis thaliana.

Substrate in data set [6]: Nc1nc2c(ncn2[C@@H]2O[C@H](COP(=O)(O)OP(=O)(O)OP(=O)(O)O)[C@@H](O)[C@H]2O)c(=O)[nH]1
In words: NDK assay, ATP formation by ATP determination kit. It is filed as biochemical, Arabidopsis thaliana. Conditions: 35 μM ADP fixed, 0-100 μM GTP, 2 mM MgCl2, pH 7.6, 25 °C.

Several values for one entry are separate records, joined by “and”; a condition that tells them apart may be missing. Equal entries are not always repeated.

Consider `Nc1ncnc2c1ncn2[C@@H]1O[C@H](COP(=O)(O)OP(=O)(O)O)[C@@H](O)[C@H]1O` [ADP], for which the Ki in data set [1] came out at 132000 nM.
What is called IC50 is the concentration that inhibits the measured activity by half. A high value points to weaker potency. `Nc1nc2c(ncn2[C@@H]2O[C@H](COP(=O)(O)OP(=O)(O)OP(O)(O)=S)[C@@H](O)[C@H]2O)c(=O)[nH]1` [GTPγS, guanosine 5′-O-[γ-thio] triphosphate] gave an IC50 in data set [2] of 681 nM.

B1: Arabidopsis thaliana nucleoside diphosphate kinase 1 (AtNDK1), wild-type (enzyme, UniProt P39207 1-149, looked up)
chain: MEQTFIMIKPDGVQRGLIGEVICRFEKKGFTLKGLKLISVERSFAEKHYEDLSSKSFFSGLVDYIVSGPVVAMIWEGKNVVLTGRKIIGATNPAASEPGTIRGDFAIDIGRNVIHGSDSVESARKEIALWFPDGPVNWQSSVHPWVYET
notes: Arabidopsis thaliana NDK1, open reading frame cloned into BamHI/EcoRI of pGEX6P-1; Hexamer by analytical SEC; also called WT AtNDK1; Arabidopsis NDK1; source: E. coli T7 express, purified (GSTrap, PreScission cleavage, glutathione agarose, SEC); not shown: GST, N-terminal, cleaved
As usually defined, the stoichiometry N is the number of molecules, sites or subunits per partner or assembly. One may read the Km as the concentration of substrate that gives half-maximal velocity. For B1, the “stoichiometry N” value in data set [3] is 6. Moreover, in data set [4], the “relative absorbance maximum of the (AtNDK1)2 peak” value was 0.1 and the “relative absorbance maximum of the (AtNDK1)6 peak” value was found to be 1. Further, in data set [5], the Km turned out to be 24.6 µM. Also, in data set [6], the Km amounted to 22.4 µM.

B2: AtNDK1-K9R (enzyme, Arabidopsis thaliana, UniProt P39207 1-149, looked up)
chain: MEQTFIMIRPDGVQRGLIGEVICRFEKKGFTLKGLKLISVERSFAEKHYEDLSSKSFFSGLVDYIVSGPVVAMIWEGKNVVLTGRKIIGATNPAASEPGTIRGDFAIDIGRNVIHGSDSVESARKEIALWFPDGPVNWQSSVHPWVYET
notes: Arabidopsis thaliana NDK1, mutant open reading frame cloned into BamHI/EcoRI of pGEX6P-1; Elutes as a mix of hexamer and dimer by analytical SEC; source: E. coli T7 express, purified (GSTrap, PreScission cleavage, glutathione agarose, SEC); not shown: GST, N-terminal, cleaved
In the case of B2, in data set [3], the “stoichiometry N” value is 6 and 2. Further, in data set [4], the “relative absorbance maximum of the (AtNDK1)2 peak” value was determined as 0.25 and the “relative absorbance maximum of the (AtNDK1)6 peak” value turned out to be 1.

B3: AtNDK1-K9A (enzyme, Arabidopsis thaliana, UniProt P39207 1-149, looked up)
chain: MEQTFIMIAPDGVQRGLIGEVICRFEKKGFTLKGLKLISVERSFAEKHYEDLSSKSFFSGLVDYIVSGPVVAMIWEGKNVVLTGRKIIGATNPAASEPGTIRGDFAIDIGRNVIHGSDSVESARKEIALWFPDGPVNWQSSVHPWVYET
notes: as for B2
As to B3, in data set [3], the “stoichiometry N” value was 6 and 2. Also, in data set [4], the “relative absorbance maximum of the (AtNDK1)2 peak” value turned out to be 0.73 and the “relative absorbance maximum of the (AtNDK1)6 peak” value stood at 1.

B4: AtNDK1-K9E (enzyme, Arabidopsis thaliana, UniProt P39207 1-149, looked up)
chain: MEQTFIMIEPDGVQRGLIGEVICRFEKKGFTLKGLKLISVERSFAEKHYEDLSSKSFFSGLVDYIVSGPVVAMIWEGKNVVLTGRKIIGATNPAASEPGTIRGDFAIDIGRNVIHGSDSVESARKEIALWFPDGPVNWQSSVHPWVYET
notes: Arabidopsis thaliana NDK1, mutant open reading frame cloned into BamHI/EcoRI of pGEX6P-1; Elutes as a mix of hexamer and dimer by analytical SEC, dimer peak the larger; source: E. coli T7 express, purified (GSTrap, PreScission cleavage, glutathione agarose, SEC); not shown: GST, N-terminal, cleaved
As for B4, the “stoichiometry N” value in data set [3] is 6 and 2. In data set [4], the “relative absorbance maximum of the (AtNDK1)2 peak” value is 1 and the “relative absorbance maximum of the (AtNDK1)6 peak” value is 0.4.

The values are drawn from paper PMC10815852, “A Non-Functional Carbon Dioxide-Mediated Post-Translational Modification on Nucleoside Diphosphate Kinase of Arabidopsis thaliana” (International Journal of Molecular Sciences, 2024).
